# From US20090255014A1 (HELMHOLTZ ZENTRUM F R INFEKTIONSFORSCHUNG, published 2009)
# T1: native Cpn10 of Oleispira antarctica (Oleispira antarctica, UniProt Q8KM31 1-97)
# T1 construct: Co-chaperonin; also called co-chaperonin Cpn10; co-chaperonin
# T1 sequence: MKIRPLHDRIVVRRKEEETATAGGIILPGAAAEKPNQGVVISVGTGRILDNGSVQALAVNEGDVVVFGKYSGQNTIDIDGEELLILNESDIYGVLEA
# Biological target: T1, native Cpn10 of Oleispira antarctica
# Experiment: conclusion from in vitro refolding of denatured mtMDH with Cpn10 and ATP
# Text: The behaviour of the stabilized single ring mutant led to the conclusion that at the low temperature, the co-chaperonin Cpn10 could bind even to the heptameric conformation, whereas at elevated temperature presumably Cpn10 could not be released from this heptameric single ring.
binder,measurement,value
"stabilized single ring mutant Glu461Ala/Ser463Ala/Val464Ala of Cpn60 of O. antarctica (other, also called triple mutant Glu461Ala/Ser463Ala/Val464Ala) MAAKDVLFGDSARAKMLVGVNILADAVRVTLGPKGRNVVIEKSFGAPIITKDGVSVAREIELKDKFENMGAQMVKEVASQANDQAGDGTTTATVLAQAIISEGLKSVAAGMNPMDLKRGIDKATAAVVAAIKEQAQPCLDTKAIAQVGTISANADETVGRLIAEAMEKVGKEGVITVEEGKGLEDELDVVEGMQFDRGYLSPYFINNQEKMTVEMENPLILLVDKKIDNLQELLPILENVAKSGRPLLIVAEDVEGQALATLVVNNLRGTFKVAAVKAPGFGDRRKAMLQDLAILTGGQVISEELGMSLETADPSSLGTASKVVIDKENTVIVDGAGTEASVNTRVDQIRAEIESSTSDYDIEKLQERVAKLAGGVAVIKVGAGSEMEMKEKKDRVDDALHATRAAVEEGVVAGGGVALIRALSSVTVVGDNEDQNVGIALALRAMEAPIRQIAGNAGAAGAAVVDKVKSGTGSFGFNASTGEYGDMIAMGILDPAKVTRSSLQAAASIAGLMITTEAMVADAPVEEGAGGMPDMGGMGGMGGMPGMM",binding result,binds
